This is an account of results in US20230312753A1 (IMMUNORIZON, published 2023).

Where a chain is given by its changes, count along the chain named.

The target in assay [1] is T1, NKG2A-CD94-ECD-hFc (human, UniProt P26715 94-233; Q13241 32-179, limits assumed).
T1 construct: extracellular domain; Lot 20200724002, 'provided by CP'; the two-chain layout here is only the reading of the name; also called human NKG2A (recombinant); NKG2A antigen; not shown: human Fc (hFc)
The assay is described as follows: ELISA on coated NKG2A-CD94-ECD-hFc (FIG. 43D). Here is the method:
(§1) Methods: ELISA binding of Tribody/ProTribody antibody constructs to antigens: Dilute target protein (hCD3epsilon-His (cat # 10977-H08S, supplier Sino Biological); h5T4-His (cat# 19845-H08H, supplier Sino Biological); NKG2A-CD94-ECD-hFc, Lot:20200724002, provided by CP; or NKG2D-ECD-hFc, Lot: 20200413002, provided by CP) into PBS with final concentration of 0.01 µg/mL for hCD3epsilon-His, 0.3 µg/mL for h5T4-His, 1 µg/mL for NKG2A-CD94-ECD-hFc and 0.7 µg/mL for hNKG2D-ECD-hFc respectively and coat 100 µL/well on ELISA plate (cat: 9018, supplier Corning) respectively. Incubate O/N, 4° C. The plates were blocked with 250 µL 1% BSA in PBST for 1 hr at 37° C.Wash 4 times with PBST. All the washes are done using Biotek (Elx 405). All the Tribody set antibodies were diluted to 400 nM and make 4-fold serially dilutions (12 points, including 0 point). Add 100 µL/well diluted antibody constructs solution to plate, incubate for 1 hr at 37° C.Wash 4 times with PBST. Add 100 µL/well anti-human kappa light chain-HRP (1:10000), incubate for 0.5 hr at 37° C. Wash 4 times with PBST. 100 µL/well of TMB substrate was added and incubated at room temperature for 5 min. 100 µL/well of 1N HCl to terminate reaction. Plates were read using ELISA plate reader at 450 nm wavelength (instrunet SpectraMax M5e). Data Analysis was performed using Graphpad prism 5 software by using nonlinear regression (curve fit): log (agonist) vs. response, agonist is antibody concentration (nM) and response is OD value.
(In general: ELISA stands for enzyme-linked immunosorbent assay.)

In assay [2] the target is T2, NKG2A/CD94 on CHO cells (CHOK1-NKG2A-CD94) (human, UniProt P26715 1-233; Q13241 1-179, limits assumed).
T2 construct: whole, on cells; also called CHO cells over-expressing NKG2A/CD94; CHO cell line over expressing ectopic NKG2A
Kind of assay: FACS on CHO cells over-expressing human NKG2A (FIG. 45F). Here is the method:
(§2) Then wash the cells 3 times with 170 µL FACS buffer. Re-suspend the cells at 100 µL/well with secondary antibody (goat anti-human Ig Fab-FITC, Cat # 2085-02, Southern biotech) with 1:400 dilution and incubate the plate for 30 min at 4° C. in dark. Centrifuge the plate at 2000 rpm, 4° C. for 5 min and discard supernatant. Then wash the cells 3 times with FACS buffer and analyze the sample with FACS verse. The fluorescence intensity of the staining was measured using flow cytometer (BD, FACSVerse). The geometric mean fluorescence intensity (GMFI; median fluorescence intensity (MFI)) of set antibodies staining was calculated (BD FACSuite software). Dose-response curves were generated and EC50s for thetrispecific variants binding were calculated using GraphPad Prism software.
Results: The expressed trispecific constructs were analyzed for their binding to cells expressing endogenous CD3ε, 5T4 and NKG2A/NKG2D. […] (FIG. 45F).

Assay [3] deals with T1, NKG2A-CD94-ECD-hFc. Kind of assay: ELISA on coated NKG2A-CD94-ECD-hFc (FIG. 43D), reference IM-1062. On the procedure:
as §1, with “Data Analysis was performed using Graphpad prism 5 software by using nonlinear regression (curve fit): log (agonist) vs. response, agonist is antibody concentration (nM) and response is OD value.” left out

In assay [4] the target is T2, NKG2A/CD94 on CHO cells …. Kind of assay: FACS on CHO cells over-expressing human NKG2A (FIG. 45F), reference IM-1062. On the procedure:
as §2, with “Suspension cultured cells was harvested directly, and adherent cell were digested using TrypLE Express Enzyme (cat: 12604-013, supplier Life technologies). Centrifuge at 1000 rpm for 5 min and discard the supernatant. Cells are suspended at a concentration of 2×10⁶/mL in FACS buffer (2% FBS in PBS) and add 100 µL/well of cell suspension to the plate (cat #3799, supplier Corning). Centrifuging the plates at 2000 rpm for 5 min and discard the supernatant. Re-suspend the cells in 100 µL/well of Tribody set antibodies (400 nM start, 4-fold dilution, 8 point including 0 point) and incubate the plate for 60 min at 4° C. Centrifuge the plate at 2000 rpm, 4° C. for 5 min and discard supernatant. Then” for “Then”, “Then wash the cells 3 times with FACS buffer and analyze the sample with FACS verse.” left out

The target of another assay is T3, NKG2D on cells (UniProt P26718 1-216, limits assumed).
T3 construct: whole, on cells
T3 sequence (looked up): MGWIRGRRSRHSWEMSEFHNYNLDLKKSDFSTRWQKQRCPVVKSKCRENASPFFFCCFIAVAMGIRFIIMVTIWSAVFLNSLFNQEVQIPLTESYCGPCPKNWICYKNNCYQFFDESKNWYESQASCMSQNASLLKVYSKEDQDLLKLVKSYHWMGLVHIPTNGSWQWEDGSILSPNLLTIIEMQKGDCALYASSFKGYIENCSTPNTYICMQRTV
Kind of assay: FACS, data not shown. Background: In flow cytometry, cells or beads pass a laser one at a time.

For another assay, the target named is T4, NKG2D-ECD-hFc (human, UniProt P26718 73-216).
T4 construct: extracellular domain; Lot 20200413002, 'provided by CP'; also called hNKG2D-ECD-hFc; not shown: human Fc (hFc)
T4 sequence (looked up): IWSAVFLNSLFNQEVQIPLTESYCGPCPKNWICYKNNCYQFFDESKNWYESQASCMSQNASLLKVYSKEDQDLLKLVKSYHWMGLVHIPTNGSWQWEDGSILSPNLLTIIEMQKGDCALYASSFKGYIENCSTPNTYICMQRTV
The assay is described as follows: ELISA, data not shown. Here is the method: as §1, with “Data Analysis was performed using Graphpad prism 5 software by using nonlinear regression (curve fit): log (agonist) vs. response, agonist is antibody concentration (nM) and response is OD value.” left out

Broadly, the EC50 is the concentration needed to bring the measured effect to its halfway point. Read a high EC50 as a need for much substance.

T1 sequence (P26715 94-233 limits assumed, chain 1 of 2): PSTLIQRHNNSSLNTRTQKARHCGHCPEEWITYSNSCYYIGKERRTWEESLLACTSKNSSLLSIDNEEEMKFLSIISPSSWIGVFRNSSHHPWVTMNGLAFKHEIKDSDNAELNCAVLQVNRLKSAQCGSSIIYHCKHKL
T1 sequence (Q13241 32-179 limits assumed, chain 2 of 2): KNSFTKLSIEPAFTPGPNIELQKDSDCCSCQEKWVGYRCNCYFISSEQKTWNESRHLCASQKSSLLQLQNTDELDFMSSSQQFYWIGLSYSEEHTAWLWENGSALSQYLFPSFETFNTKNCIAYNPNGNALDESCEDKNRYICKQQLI
T2 sequence (P26715 whole entry, chain 1 of 2): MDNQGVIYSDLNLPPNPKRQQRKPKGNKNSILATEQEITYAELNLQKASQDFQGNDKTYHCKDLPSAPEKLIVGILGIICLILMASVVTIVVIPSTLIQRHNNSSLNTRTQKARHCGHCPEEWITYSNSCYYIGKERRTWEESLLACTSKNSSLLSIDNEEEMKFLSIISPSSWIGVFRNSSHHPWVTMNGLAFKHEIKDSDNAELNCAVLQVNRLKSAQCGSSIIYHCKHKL
T2 sequence (Q13241 whole entry, chain 2 of 2): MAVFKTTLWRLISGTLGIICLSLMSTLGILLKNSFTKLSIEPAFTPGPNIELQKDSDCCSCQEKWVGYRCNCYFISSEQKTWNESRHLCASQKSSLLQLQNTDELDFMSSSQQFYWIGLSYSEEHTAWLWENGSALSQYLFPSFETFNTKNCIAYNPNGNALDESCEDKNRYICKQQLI

B1: IM-1272 bi-NKG2A scFv Tribody (other)
heavy: GGSGGSEVQLVESGGGLVQPGGSLRLSCAASGFTFNTYAMNWVRQAPGKGLEWVARIRSKYNNYATYYADSVKDRFTISRDDSKNTLYLQMNSLRAEDTAVYYCVRHGNFGNSYVSWFAYWGQGTMVTVSSASTKGPSVFPLAPSSKSTSGGTAALGCLVKDYFPEPVTVSWNSGALTSGVHTFPAVLQSSGLYSLSSVVTVPSSSLGTQTYICNVNHKPSNTKVDKRVEPKSCPPCGGGGSDIQMTQSPSSLSASVGDRVTITCRASENIYSYLAWYQQKPGKAPKLLIYNAKTLAEGVPSRFSGSGSGTDFTLTISSLQPEDFATYYCQHHYGTPRTFGGGTKVEIKGGGGSGGGGSGGGGSQVQLVQSGAEVKKPGASVKVSCKASGYTFTSYWMNWVRQAPGQGLEWMGRIDPYDSETHYAQKLQGRVTMTTDTSTSTAYMELRSLRSDDTAVYYCARGGYDFDVGTLYWFFDVWGQGTTVTVSSGGGGSDIQMTQSPSSLSASVGDRVTITCRASENIYSYLAWYQQKPGKAPKLLIYNAKTLAEGVPSRFSGSGSGTDFTLTISSLQPEDFATYYCQHHYGTPRTFGGGTKVEIKGGGGSGGGGSGGGGSQVQLVQSGAEVKKPGASVKVSCKASGYTFTSYWMNWVRQAPGQGLEWMGRIDPYDSETHYAQKLQGRVTMTTDTSTSTAYMELRSLRSDDTAVYYCARGGYDFDVGTLYWFFDVWGQGTTVTVSS
light: GGSGGSQAVVTQEPSLTVSPGGTVTLTCRSSTGAVTTSNYANWVQQKPGQAPRGLIGGTNKRAPGTPARFSGSLLGGKAALTLSGVQPEDEAEYYCALWYSNLWVFGGGTKLTVLGQPKAAPSVTLFPPSSEELQANKATLVCLISDFYPGAVTVAWKADSSPVKAGVETTTPSKQSNNKYAASSYLSLTPEQWKSHRSYSCQVTHEGSTVEKTVAPTECPPCSGGGSDIQMTQSPSSLSASVGDRVTITCRASQGISNYLAWFQQKPGKAPKSLIYRANRLQSGVPSRFSGSGSGTDFTLTISSLQPEDVATYYCLQYDDFPWTFGQGTKLEIKGGGGSGGGGSGGGGSGGGGSQVQLVQSGAEVKKPGASVKVSCKASGYTFTSFWMHWVRQAPGQGLEWMGRIDPNRGGTEYNEKAKSRVTMTADKSTSTAYMELSSLRSEDTAVYYCAGGNPYYPMDYWGQGTTVTVSS
notes: Tribody with anti-CD3 Fab, anti-5T4 scFv and two anti-NKG2A scFv in tandem
Take B1: the EC50 stood at 0.2 nM with NKG2A-CD94-ECD-hFc [1] and 0.4 nM in assay [2]. Besides, the “fold improved binding affinity against IM-1062” value is about 60 fold with NKG2A-CD94-ECD-hFc [3] and about 80 fold in assay [4].

B2: IM-1091 Tribody, NKG2D mutant variant (other)
heavy: GGSGGSEVQLVESGGGLVQPGGSLRLSCAASGFTFNTYAMNWVRQAPGKGLEWVARIRSKYNNYATYYADSVKDRFTISRDDSKNTLYLQMNSLRAEDTAVYYCVRHGNFGNSYVSWFAYWGQGTMVTVSSASTKGPSVFPLAPSSKSTSGGTAALGCLVKDYFPEPVTVSWNSGALTSGVHTFPAVLQSSGLYSLSSVVTVPSSSLGTQTYICNVNHKPSNTKVDKRVEPKSCPPCGGGGSQSALTQPASVSGSPGQSITISCSGSSSNIGNNAVNWYQQLPGKAPKLLIYADDLLPSGVSDRFSGSKSGTSAFLAISGLQSEDEADYYCAAWDDSLNGPVFGGGTKLTVLGGGGSGGGGSGGGGSGGGGSQVQLVESGGGLVKPGGSLRLSCAASGFTFSSYGMHWVRQAPGKGLEWVAFIRYDGSNKYYADSVKGRFTISRDNSKNTLYLQMNSLRAEDTAVYYCAKDAGEGDGTYFDYWGQGTTVTVSS
light: B1 light
notes: CD3/5T4/NKG2D Tribody with mutated anti-NKG2D arm
Regarding B2, the binding result with NKG2D on cells and with NKG2D-ECD-hFc was “no binding” in each case.

B3: IM-1273 bi-NKG2A scFv Tribody, CD3 mutant variant (other)
heavy: B1 heavy with R58G, K60G, Y61G, N63G, N112A, Y114A, V115R
light: B1 light with T37R, S38G, Y40A, K61A, W99G, N102G
notes: Two anti-NKG2A scFv in tandem, CD3 arm mutated; also called IM-1273 CD3 mutant variant
As for B3, the EC50 in the assay with NKG2A-CD94-ECD-hFc [1] is 0.1 nM; in assay [2], 0.2 nM. Moreover, the “fold improved binding affinity against IM-1062” value with NKG2A-CD94-ECD-hFc [3] is about 60 fold; in assay [4], about 80 fold.
